Laboratory results from PMC4933465.

Columns and labels:
[1] = target: Link_TSG6 (recombinant Link module from human TSG-6) (human) (UniProt P98066); experiment: SPR; Link_TSG6 amine-coupled to a C1 chip (800–1000 RU), chemokine as analyte; BIAcore 3000; 10 mM HEPES, 150 mM NaCl, 0.05% Tween 20, pH 7.4; 40 μl/min; 1:1 Langmuir model; apparent affinities
CCL2 = CCL2 (UniProt P13500)
CCL7 = CCL7 (UniProt P80098)
Biotinylated CCL21 = Biotinylated CCL21 (UniProt O00585)
Sequence of Biotinylated CCL21 (O00585 24-134): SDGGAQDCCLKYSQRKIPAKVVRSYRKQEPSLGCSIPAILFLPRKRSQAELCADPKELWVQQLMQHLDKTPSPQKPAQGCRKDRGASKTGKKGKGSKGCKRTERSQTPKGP

Sequence of Link_TSG6 (recombinant Link module from human TSG-6) (human) (P98066 36-133): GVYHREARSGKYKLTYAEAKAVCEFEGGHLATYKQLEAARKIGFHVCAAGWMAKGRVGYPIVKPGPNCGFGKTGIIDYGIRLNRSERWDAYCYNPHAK
Sequence of Link_TSG6 (recombinant Link module from human TSG-6) (P98066 36-133): as above
Sequence of CCL7 (P80098 24-99): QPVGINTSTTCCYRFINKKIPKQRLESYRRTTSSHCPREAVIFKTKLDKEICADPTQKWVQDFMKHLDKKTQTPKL
Sequence of CCL2 (P13500 24-99): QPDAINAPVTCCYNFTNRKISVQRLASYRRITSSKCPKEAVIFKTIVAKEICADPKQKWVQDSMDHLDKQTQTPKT

Substance	Kd [1] [nM]	koff [1] [s⁻¹]	kon [1] [M⁻¹ s⁻¹]	accumulation of CCL2 (50 nM) on EaHY926 endothelial cells after pre-incubation with Link TSG6 at 1:1 to 5:1 molar ratio (∼75 to ∼55% of chemokine alone) (% of chemokine alone) (CCL2)	accumulation of biotinylated CXCL4 (10 nM) on EaHY926 endothelial cells after pre-incubation with a 5-fold molar excess of Link TSG6 (% of chemokine alone) (Biotinylated CXCL4)	accumulation of CCL7 (50 nM) on EaHY926 endothelial cells after pre-incubation with Link TSG6 at a 1:1 molar ratio (% of chemokine alone) (CCL7)	accumulation of biotinylated CCL21 (50 nM) on EaHY926 endothelial cells after pre-incubation with Link TSG6 at a 1:1 molar ratio (% of chemokine alone) (Biotinylated CCL21)
CXCL4 (ligand)	3.9	0.0014	360000	–	–	–	–
Link_TSG6 (recombinant Link module from human TSG-6) (from UniProt P98066 36-133) (domain or fragment)	–	–	–	75	51	50	50
